This experiment concerns the target T1, VEGF (biotinylated target on streptavidin BLI probe) (UniProt P15692-4 27-191, limits assumed, biotin (site not stated)).
T1 construct: also called vascular endothelial growth factor
The experiment can be described thus: binding kinetics, Kd (nM); Example 6 describes BLI on biotinylated target.

T1 sequence (P15692 other isoform, or with tags, fused parts or gaps limits assumed): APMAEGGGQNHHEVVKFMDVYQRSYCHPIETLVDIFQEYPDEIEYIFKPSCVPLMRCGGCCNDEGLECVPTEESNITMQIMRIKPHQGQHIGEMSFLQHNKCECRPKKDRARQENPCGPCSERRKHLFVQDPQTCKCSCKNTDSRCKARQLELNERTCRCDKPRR

B1: G5-1 (VHH)
VHH: EVQLQASGGGFVQPGGSLRLSCAASGSTYANYVMGWFRQAPGKEREFVSAISAFNDEVLYYADSVKGRFTISRDNSKNTVYLQMNSLRAEDTATYYCARAGQEEASKNAPGQEPVRYWGQGTQVTVSS
notes: unconjugated comparator of conjugates 24 and 25; also called G5-1 aVEGF VHH, unconjugated; G5-1 alone
Regarding B1, binding was characterised by a dissociation constant (Kd) of 29.3 nM.

One may read the Kd as the equilibrium constant for the complex coming apart. A lower Kd goes with higher affinity.

Values taken from patent US20220251185A1 (VALITOR, published 2022).
